From publication PMC5915145, “CNPY2 inhibits MYLIP-mediated AR protein degradation in prostate cancer cells” (Oncotarget, 2018)

Molecular target: T1, recombinant UBE2D1-His (UniProt P51668 1-147)
T1 construct: UBE2D1 (UbcH5a), E2 ubiquitin conjugating enzyme; The methods of the pull-down call it UBE2D-His; also called UBE2D-His; source: E. coli, recombinant (pET29a (+) or pGEX4T1 vector); purification not described; not shown: His, C-terminal, kept
Experiment: pull-down; GST-RING (8 ug) on Glutathione Sepharose beads with recombinant UBE2D-His (5 ug) or immunoprecipitated FLAG-CNPY2 (5 or 15 ug), 4 C, 30 min; 50 mM Tris-HCl pH 7.5, 150 mM NaCl, 5 mM EDTA, 0.5% NP40; immunoblotting
Conditions: both partners purified

T1 sequence (P51668 whole entry): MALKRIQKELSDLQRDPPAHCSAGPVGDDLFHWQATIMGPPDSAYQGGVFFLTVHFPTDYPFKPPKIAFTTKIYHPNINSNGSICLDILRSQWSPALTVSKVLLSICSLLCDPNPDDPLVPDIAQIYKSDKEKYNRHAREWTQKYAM

- binding result: binds
B1: recombinant GST-fused RING domain of MYLIP (344-445 a.a.) (domain or fragment, UniProt Q8WY64 344-445, looked up)
chain: QSPSHSPLKSSESSMNCSSCEGLSCQQTRVLQEKLRKLKEAMLCMVCCEEEINSTFCPCGHTVCCESCAAQLQSCPVCRSRVEHVQHVYLPTHTSLLNLTVI
notes: MYLIP, RING domain, residues 344-445; Held on Glutathione Sepharose beads in the pull-down; pGEX4T1 vector); also called GST-RING; MYLIP RING; source: E. coli BL21 (DE3), purified (Glutathione Sepharose, eluted with 40 mM reduced glutathione); not shown: GST, N-terminal, kept
